{"source": "paper PMC4357697", "about": "“Sequence-specific cleavage of dsRNA by Mini-III RNase”", "binders": {"B1": {"name": "30 bp dsRNA (30f/30r) (dsRNA)", "RNA 1": "CGAUACCGUCGACCUCGAGGGGGGGCCCGG", "RNA 2": "CCGGGCCCCCCCUCGAGGUCGACGGUAUCG"}}, "key": {"[1]": {"target": "T1, BsMiniIII Δ5 (Bacillus subtilis ATCC 23857, UniProt O31418 1-143, del91-95)", "T1 sequence": "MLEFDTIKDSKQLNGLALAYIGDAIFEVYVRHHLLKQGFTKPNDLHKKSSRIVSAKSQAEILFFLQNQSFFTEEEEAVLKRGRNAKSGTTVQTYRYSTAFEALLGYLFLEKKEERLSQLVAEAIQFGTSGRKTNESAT", "assay": "filter binding; 1 mM Ca2+; affinity not affected vs wild type; Filter binding: 10 mM Tris-HCl pH 7.5, 5 mM NaCl, 1 mM CaCl2, room temperature, 1 h; 0.01 µM labeled 30 bp dsRNA, 0.1-4 µM enzyme", "details": "protein: recombinant; tags: C-terminal His6; chain copies: 2; label: 32P end label (33P in Methods for the substrate); blunt"}, "[2]": {"target": "T2, BsMiniIII Δ10 (Bacillus subtilis ATCC 23857, UniProt O31418 1-143, del86-95)", "T2 sequence": "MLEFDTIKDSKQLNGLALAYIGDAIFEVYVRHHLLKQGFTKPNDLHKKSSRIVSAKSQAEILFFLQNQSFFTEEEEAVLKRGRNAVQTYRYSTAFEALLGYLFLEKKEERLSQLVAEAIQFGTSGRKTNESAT", "assay": "filter binding; 1 mM Ca2+; affinity not affected vs wild type; Filter binding: 10 mM Tris-HCl pH 7.5, 5 mM NaCl, 1 mM CaCl2, room temperature, 1 h; 0.01 µM labeled 30 bp dsRNA, 0.1-4 µM enzyme", "details": "protein: recombinant; tags: C-terminal His6; chain copies: 2; label: 32P end label (33P in Methods for the substrate); blunt"}}, "data": [{"binder": "B1", "values": [{"measurement": "binding result", "setting": "[1]", "result": "binds"}, {"measurement": "binding result", "setting": "[2]", "result": "binds"}]}]}
